Biological target: Recombinant human endostatin (human) (UniProt P39060)
Assay: SPR

Sequence of UniProt P39060 (P39060 1572-1754): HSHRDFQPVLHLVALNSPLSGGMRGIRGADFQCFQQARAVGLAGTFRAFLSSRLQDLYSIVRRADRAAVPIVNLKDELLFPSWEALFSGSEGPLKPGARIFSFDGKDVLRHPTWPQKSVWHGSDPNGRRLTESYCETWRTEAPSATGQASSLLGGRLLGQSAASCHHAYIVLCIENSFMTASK

Kd: 9 nM
Substance: α3β1 integrin (Millipore) (from UniProt P26006 33-1051; P05556 21-728) (complex)
